The target of assay [1] is CD47 on the surface of tumor cells (Raji cells, Jurkat cells, A549 cells) (human) (UniProt Q08722). Kind of assay: flow cytometry on A549 cells.
For assay [2] the target is unchanged. Kind of assay: flow cytometry on Raji cells. On the technique in general: A flow cytometer gives signals particle by particle.
For assay [3] the target is unchanged. Kind of assay: flow cytometry on Jurkat cells.
Assay [4] addresses Biotin-Fc-CD47 (Homo sapiens (Human)) (UniProt Q08722). Kind of assay: competition ELISA: blocks Biotin-Fc-CD47 binding to coated SIRPα-His. Background: ELISA stands for enzyme-linked immunosorbent assay.
The target in assay [5] is CD47-FITC (Homo sapiens (Human)) (UniProt Q08722). Nature of the assay: flow cytometry of the wild domain control with the same gate as the library panel above it (CD47-FITC in the text, x axis printed APC-A), first panel, under the 3% panel.
Assay [6] shares this target. Kind of assay: flow cytometry of the wild domain control with the same gate as the library panel above it (CD47-FITC in the text, x axis printed APC-A), second panel, under the 4.9% panel.
For assay [7] the target is unchanged. Nature of the assay: flow cytometry of the wild domain control with the same gate as the library panel above it (CD47-FITC in the text, x axis printed APC-A), third panel, under the 12.5% panel.

A word on the EC50: it is the midpoint of the concentration-response curve. A lower EC50 goes with greater potency. The term IC50 denotes the concentration at which inhibition is half-maximal. A low value points to greater potency in that assay. Regarding TTI-621 (Fc fusion), the figures for the EC50 in assay [1], in assay [2] and in assay [3] were 1 µg/mL, 0.0404 µg/mL and 0.0539 µg/mL, respectively. Besides, the figures for the maximum fluorescence intensity in assay [1], in assay [2] and in assay [3] were 60, 600 and 3000, respectively. The molecule further yielded an IC50 in assay [4] of 494 µg/mL.

B1: Wild domain control (receptor, part only; not given: display vector transmembrane region, not shown: another chain or arm of the molecule; large carriers; small tags and cut ends)
chain: ELQVIQPDKSVLVAAGETATLRCTATSLIPVGPIQWFRGAGPGRELIYNQKEGHFPRVTTVSDLTKRNNMDFSIRIGNITPADAGTYYCVKFRKGSPDDVEFKSGAGTELSVRAKPS
modifications: displayed on the CHO cell surface through the pTM transmembrane region (no letters given); the pTM signal peptide is left off as cleaved
For the molecule B1, the percent of cells in gate P2 in assay [5] came to 1.3%; in assay [6], 0%; in assay [7], 0%.

These data come from patent US20210171593A1.
